Experimental data: JP2014043405A (dated 2014)
Where a chain is given by its changes, count along the chain named. In names and notes the source's numbering stands.

T1: ヒトFcγRIIb (human, UniProt P31994 43-217)
T1 construct: extracellular domain; for the crystals it was expressed with kifunensine and its N-glycans trimmed with Endo F1; also called FcγRIIb細胞外領域
T1 sequence (looked up): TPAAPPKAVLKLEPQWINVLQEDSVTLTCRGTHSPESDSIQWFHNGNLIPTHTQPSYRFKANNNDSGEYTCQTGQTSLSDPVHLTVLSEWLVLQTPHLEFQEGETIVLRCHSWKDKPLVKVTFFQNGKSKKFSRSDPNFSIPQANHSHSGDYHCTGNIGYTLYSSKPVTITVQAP

T2: ヒトFcγRIIa (H) (human, UniProt P12318 34-217)
T2 construct: extracellular domain; also called FcγRIIa H型
T2 sequence (looked up): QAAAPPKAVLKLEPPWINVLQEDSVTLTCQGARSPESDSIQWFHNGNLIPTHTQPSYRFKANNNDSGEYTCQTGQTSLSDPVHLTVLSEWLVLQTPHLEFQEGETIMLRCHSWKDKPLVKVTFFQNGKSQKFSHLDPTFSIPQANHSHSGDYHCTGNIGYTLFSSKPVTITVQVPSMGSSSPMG

B1: IL6R-BP423/IL6R-L (antibody, human IgG1)
heavy: QVQLQESGPGLVKPSETLSLTCAVSGHSISHDHAWSWVRQPPGEGLEWIGFISYSGITNYNPSLQGRVTISRDNSKNTLYLQMNSLRAEDTAVYYCARSLARTTAMDYWGEGTLVTVSSASTKGPSVFPLAPSSKSTSGGTAALGCLVKDYFPEPVTVSWNSGALTSGVHTFPAVLQSSGLYSLSSVVTVPSSSLGTQTYICNVNHKPSNTKVDKKVEPKSCDKTHTCPPCPAPDLLGDDSVFLFPPKPKDTLMISRTPEVTCVVVDVAEEDGEVKFNWYVDGVEVHNAKTKPREEQYNSTYRVVSVLTVLHQDWLNGKEYKCKVSNKALPRPIEKTISKAKGQPREPQVYTLPPSRDELTKNQVSLTCLVKGFYPSDIAVEWESNGQPENNYKTTPPVLDSDGSFFLYSKLTVDKSRWQQGNVFSCSVMHEALHNHYTQESLSLSP
light: DIQMTQSPSSLSASVGDRVTITCRASQDISSYLNWYQQKPGKAPKLLIYYTSRLHSGVPSRFSGSGSGTDFTFTISSLQPEDIATYYCQQGNTLPYTFGQGTKVEIK
B2: IL6R-BP267/IL6R-LにE269Dの改変が加えられた改変体 (antibody, human IgG1)
heavy: B1 heavy with A269S, E271D, R332A
light: B1 light
notes: also called IL6R-BP267 + E269D
B3: IL6R-BP267/IL6R-LにS267Aの改変が加えられた改変体 (antibody, human IgG1)
heavy: B1 heavy with R332A
light: B1 light
notes: also called IL6R-BP267 + S267A
B4: IL6R-BP267/IL6R-LにS267Eの改変が加えられた改変体 (antibody, human IgG1)
heavy: B1 heavy with A269E, R332A
light: B1 light
notes: also called IL6R-BP267 + S267E
B5: IL6R-BP267/IL6R-LにS267Gの改変が加えられた改変体 (antibody, human IgG1)
heavy: B1 heavy with A269G, R332A
light: B1 light
notes: also called IL6R-BP267 + S267G
B6: IL6R-BP267/IL6R-LにV264Iの改変が加えられた改変体 (antibody, human IgG1)
heavy: B1 heavy with V266I, A269S, R332A
light: B1 light
notes: also called IL6R-BP267 + V264I
B7: IL6R-BP267/IL6R-LにV266Fの改変が加えられた改変体 (antibody, human IgG1)
heavy: B1 heavy with V268F, A269S, R332A
light: B1 light
notes: also called IL6R-BP267 + V266F
B8: IL6R-BP267/IL6R-LにV266Mの改変が加えられた改変体 (antibody, human IgG1)
heavy: B1 heavy with V268M, A269S, R332A
light: B1 light
notes: also called IL6R-BP267 + V266M
B9: IL6R-BP448/IL6R-L (antibody, human IgG1)
heavy: B1 heavy with P398D
light: B1 light
B10: IL6R-BP449/IL6R-L (antibody, human IgG1)
heavy: B1 heavy with P398E
light: B1 light
B11: IL6R-BP450/IL6R-L (antibody, human IgG1)
heavy: B1 heavy with P398F
light: B1 light
B12: IL6R-BP453/IL6R-L (antibody, human IgG1)
heavy: B1 heavy with P398I
light: B1 light
B13: IL6R-BP454/IL6R-L (antibody, human IgG1)
heavy: B1 heavy with P398K
light: B1 light
B14: IL6R-BP455/IL6R-L (antibody, human IgG1)
heavy: B1 heavy with P398L
light: B1 light
B15: IL6R-BP456/IL6R-L (antibody, human IgG1)
heavy: B1 heavy with P398M
light: B1 light
B16: IL6R-BP458/IL6R-L (antibody, human IgG1)
heavy: B1 heavy with P398Q
light: B1 light
B17: IL6R-BP459/IL6R-L (antibody, human IgG1)
heavy: B1 heavy with P398R
light: B1 light
B18: IL6R-BP464/IL6R-L (antibody, human IgG1)
heavy: B1 heavy with P398Y
light: B1 light
B19: IL6R-G4d/IL6R-L (antibody, human IgG4 S228P)
heavy: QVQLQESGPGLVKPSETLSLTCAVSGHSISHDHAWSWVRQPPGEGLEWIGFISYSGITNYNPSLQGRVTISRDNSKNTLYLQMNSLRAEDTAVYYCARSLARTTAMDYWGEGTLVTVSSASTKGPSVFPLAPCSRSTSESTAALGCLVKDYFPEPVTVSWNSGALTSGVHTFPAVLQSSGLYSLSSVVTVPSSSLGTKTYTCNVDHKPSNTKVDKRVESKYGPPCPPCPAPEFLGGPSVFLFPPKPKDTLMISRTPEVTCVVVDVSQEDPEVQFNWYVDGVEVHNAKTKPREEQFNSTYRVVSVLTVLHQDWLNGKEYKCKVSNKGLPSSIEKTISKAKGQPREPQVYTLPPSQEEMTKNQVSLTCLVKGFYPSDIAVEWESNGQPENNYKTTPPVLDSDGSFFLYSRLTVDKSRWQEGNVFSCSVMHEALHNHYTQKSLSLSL
light: B1 light
B20: IL6R-BP473/IL6R-L (antibody)
chain 1: B1 heavy with A269S, E270D, Y298D, A329G
chain 2: not shown
B21: IL6R-BP253/IL6R-L (antibody, human IgG1)
heavy: B1 heavy with D235E, D239G, D240P, A269E, E270H, G273P, L330F, R332A
light: B1 light
notes: comparison antibody with the known FcγRIIb-enhancing substitutions
B22: IL6R-BP479/IL6R-L (antibody)
chain 1: B1 heavy with V266I, V268L, R332A
chain 2: not shown
B23: IL6R-BP493/IL6R-L (antibody)
chain 1: B1 heavy with D235E, D239G, V266I, Y298D, R332A
chain 2: not shown
B24: IL6R-BP234/IL6R-L (antibody)
chain 1: B1 heavy with L236Y, A269Q, E270D, Y298D, K328D, R332K
chain 2: not shown
B25: IL6R-BP231/IL6R-L (antibody)
chain 1: B1 heavy with D235E, A269S, E270D, Y298D
chain 2: not shown

Tests used:
ヒトFcγRIIb [1] = target: T1, ヒトFcγRIIb; test: SPR, KD
ヒトFcγRIa = ヒトFcγRIa (human, UniProt P12314 16-292); test: SPR, KD
Sequence of ヒトFcγRIa (P12314 16-292): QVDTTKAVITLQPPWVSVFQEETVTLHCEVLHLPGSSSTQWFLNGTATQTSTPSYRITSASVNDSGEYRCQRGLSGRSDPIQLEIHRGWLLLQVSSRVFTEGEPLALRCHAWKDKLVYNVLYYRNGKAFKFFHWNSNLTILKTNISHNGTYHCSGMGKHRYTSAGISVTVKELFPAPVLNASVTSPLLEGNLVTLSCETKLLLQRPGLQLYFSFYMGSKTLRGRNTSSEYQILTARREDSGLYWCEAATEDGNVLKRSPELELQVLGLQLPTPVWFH

ヒトFcγRIIa (H) = target: T2, ヒトFcγRIIa (H); test: SPR, KD
ヒトFcγRIIb [2] = target: T1, ヒトFcγRIIb; test: SPR, KD; reference IL6R-BP230/IL6R-L
ヒトFcγRIIb [3] = target: T1, ヒトFcγRIIb; test: SPR; KD for FcγRIIaR divided by KD for FcγRIIb

Binder	binding result (ヒトFcγRIIb [1])	further results
B1	binds	
B2	binds	
B3	binds	
B4	binds	
B5	binds	
B6	binds	
B7	binds	
B8	binds	
B9	binds	
B10	binds	
B11	binds	
B12	binds	
B13	binds	
B14	binds	
B15	binds	
B16	binds	
B17	binds	
B18	binds	
B19		binding result (ヒトFcγRIa): binds; binding result (ヒトFcγRIIa (H)): binds
B20		fold enhancement of binding against IL6R-BP230/IL6R-L (ヒトFcγRIIb [2]): 1.2 fold
B21		binding result (ヒトFcγRIa): binds; binding result (ヒトFcγRIIa (H)): binds
B22		KD (IIaR)/KD (IIb) (ヒトFcγRIIb [3]): 16.1 ratio
B23		KD (IIaR)/KD (IIb) (ヒトFcγRIIb [3]): 52.1 ratio
B24		KD (IIaR)/KD (IIb) (ヒトFcγRIIb [3]): 10 ratio
B25		KD (IIaR)/KD (IIb) (ヒトFcγRIIb [3]): 32.2 ratio
